The values that follow come from US20250197503A1, “ANTI-HUMAN PD-Ll AND TLR7 DOUBLE-TARGETING NANOBODY CONJUGATE DRUG AND USE THEREOF IN RESISTING TUMOR” (SHANGHAI INSTITUTE OF MATERIA MEDICA , CHINESE ACADEMY OF …, priority 2022, published 2025).

A word on the IC50: it is the concentration that inhibits the measured activity by half.

The target of this test is human PD-L1 (human) (UniProt Q9NZQ7). The test can be described thus: FACS blocking of human PD-1/PD-L1 binding.
Chain of human PD-L1 (human) (Q9NZQ7 19-290): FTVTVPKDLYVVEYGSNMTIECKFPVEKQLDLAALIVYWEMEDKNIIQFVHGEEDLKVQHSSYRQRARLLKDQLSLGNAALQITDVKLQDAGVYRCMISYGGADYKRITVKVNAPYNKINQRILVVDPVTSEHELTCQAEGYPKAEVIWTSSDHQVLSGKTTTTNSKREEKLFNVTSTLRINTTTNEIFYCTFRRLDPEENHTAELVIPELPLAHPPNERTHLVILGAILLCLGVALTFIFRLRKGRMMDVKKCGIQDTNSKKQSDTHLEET

KN035 registered an IC50 of 0.208 µg/mL.
